Data taken from FireProtDB (doi:10.1021/bi00165a022).

Conditions: Escherichia phage lambda, Thermal, DSC, Potassium phosphate 20 nM, whole UniProt chain shown

B1: Regulatory protein cro wild type, P03040 (protein)
chain: MEQRITLKDYAMRFGQTKTAKDLGVYQSAINKAIHAGRKIFLTINADGSVYAEEVKPFPSNKKTTA
- Tm (pH 5.18): 35.5 °C
- heat capacity change of unfolding (pH 5.18): 1.51 kcal/mol/K
- unfolding enthalpy (calorimetric) (pH 5.18): 34.9 kcal/mol
- unfolding enthalpy (van 't Hoff) (pH 5.18): 37.3 kcal/mol
- Tm (pH 5.48): 38 °C
- heat capacity change of unfolding (pH 5.48): 1.61 kcal/mol/K
- unfolding enthalpy (calorimetric) (pH 5.48): 39 kcal/mol
- unfolding enthalpy (van 't Hoff) (pH 5.48): 40.7 kcal/mol
- Tm (pH 6): 44 °C
- heat capacity change of unfolding (pH 6): 1.66 kcal/mol/K
- unfolding enthalpy (calorimetric) (pH 6): 48.1 kcal/mol
- unfolding enthalpy (van 't Hoff) (pH 6): 51 kcal/mol
- Tm (pH 7): 46.2 °C
- heat capacity change of unfolding (pH 7): 1.36 kcal/mol/K
- unfolding enthalpy (calorimetric) (pH 7): 52.9 kcal/mol
- unfolding enthalpy (van 't Hoff) (pH 7): 52.4 kcal/mol
